This assay has as its target CD33 (cell surface antigen on HL60 and NB4 cells) (UniProt P20138). The assay is described as follows: cell-based or functional assay.

CD33 (cell surface antigen on HL60 and NB4 cells), sequence (P20138 18-364 limits assumed): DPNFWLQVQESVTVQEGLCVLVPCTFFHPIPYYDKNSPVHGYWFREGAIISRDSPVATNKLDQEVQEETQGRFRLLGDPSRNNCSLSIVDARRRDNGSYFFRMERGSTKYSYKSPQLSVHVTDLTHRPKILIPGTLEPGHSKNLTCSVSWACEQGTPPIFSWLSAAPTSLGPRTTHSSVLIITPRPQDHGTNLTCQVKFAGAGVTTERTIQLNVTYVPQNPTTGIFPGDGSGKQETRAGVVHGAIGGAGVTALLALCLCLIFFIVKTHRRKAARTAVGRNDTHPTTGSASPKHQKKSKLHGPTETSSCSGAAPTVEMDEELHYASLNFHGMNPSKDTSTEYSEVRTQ
HuM195-dCK conjugate (wild type dCK chemically conjugated to the humanized anti-CD33 monoclonal antibody HuM195), sequence (B2R8V6 whole entry): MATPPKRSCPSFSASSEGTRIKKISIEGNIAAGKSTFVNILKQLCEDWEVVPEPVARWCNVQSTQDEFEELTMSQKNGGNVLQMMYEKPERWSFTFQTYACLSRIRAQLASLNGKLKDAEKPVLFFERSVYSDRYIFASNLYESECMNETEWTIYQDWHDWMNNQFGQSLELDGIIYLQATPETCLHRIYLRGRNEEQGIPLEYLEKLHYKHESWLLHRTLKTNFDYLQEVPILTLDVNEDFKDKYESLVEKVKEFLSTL

For “HuM195-dCK conjugate (wild type dCK chemically conjugated to the humanized anti-CD33 monoclonal antibody HuM195)”, the additional cell killing over AraC alone (Annexin V and propidium iodide apoptosis assay), HL60 cells was 20%; the cell death (Annexin V and propidium iodide apoptosis assay), HL60 cells, conjugate in combination with AraC 1 µM came to 70%; the cell killing (apoptosis assay), NB4 cells, conjugate with AraC 250 nM was found to be 65%.

The values above are taken from patent publication US20110129470A1.
